Test results as given in patent publication US20240132603A1 (HARBOUR BIOMED US, published 2024).
Like-named read-outs stand apart in the source and are kept apart here.

B1: PR004122 (antibody, human IgG1, kappa)
heavy: not shown
light: DIVMTQAAPSVPVTPGESVSISCRSSKSLLHSNGNTYLYWFLQRPGQSPQLLIYRMSNLASGVPDRFSGSGSGTAFTLRISRVEAEDVGVYYCMQHLEYPLTFGAGTKLELKRTVAAPSVFIFPPSDEQLKSGTASVVCLLNNFYPREAKVQWKVDNALQSGNSQESVTEQDSKDSTYSLSSTLTLSKADYEKHKVYACEVTHQGLSSPVTKSFNRGEC
notes: chimeric, human IgG1 constant region
B2: PR006155 (antibody, human IgG1, kappa)
heavy: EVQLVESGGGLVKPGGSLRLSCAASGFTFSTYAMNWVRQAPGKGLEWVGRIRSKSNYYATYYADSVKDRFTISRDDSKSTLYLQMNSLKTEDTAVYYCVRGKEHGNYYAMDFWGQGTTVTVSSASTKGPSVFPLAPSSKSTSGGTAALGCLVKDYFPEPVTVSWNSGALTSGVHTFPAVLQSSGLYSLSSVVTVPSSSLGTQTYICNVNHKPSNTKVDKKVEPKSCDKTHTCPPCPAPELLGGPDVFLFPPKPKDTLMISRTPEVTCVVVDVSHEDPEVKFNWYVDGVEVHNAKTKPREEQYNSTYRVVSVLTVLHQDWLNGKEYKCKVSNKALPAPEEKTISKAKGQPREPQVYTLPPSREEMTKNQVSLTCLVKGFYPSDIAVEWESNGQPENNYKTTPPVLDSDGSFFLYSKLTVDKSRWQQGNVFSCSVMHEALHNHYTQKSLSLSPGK
light: DIVMTQSPLSLPVTLGQPASISCRSSKSLLHSNAKIYLYWFQQRPGQSPRLLIYRMSNLASGVPDRFSGSGSGTDFTLKISRVEAEDVGVYYCMQHLEYPLTFGQGTKLEIKRTVAAPSVFIFPPSDEQLKSGTASVVCLLNNFYPREAKVQWKVDNALQSGNSQESVTEQDSKDSTYSLSSTLTLSKADYEKHKVYACEVTHQGLSSPVTKSFNRGEC
B3: PR006166 (antibody, human IgG1, kappa)
heavy: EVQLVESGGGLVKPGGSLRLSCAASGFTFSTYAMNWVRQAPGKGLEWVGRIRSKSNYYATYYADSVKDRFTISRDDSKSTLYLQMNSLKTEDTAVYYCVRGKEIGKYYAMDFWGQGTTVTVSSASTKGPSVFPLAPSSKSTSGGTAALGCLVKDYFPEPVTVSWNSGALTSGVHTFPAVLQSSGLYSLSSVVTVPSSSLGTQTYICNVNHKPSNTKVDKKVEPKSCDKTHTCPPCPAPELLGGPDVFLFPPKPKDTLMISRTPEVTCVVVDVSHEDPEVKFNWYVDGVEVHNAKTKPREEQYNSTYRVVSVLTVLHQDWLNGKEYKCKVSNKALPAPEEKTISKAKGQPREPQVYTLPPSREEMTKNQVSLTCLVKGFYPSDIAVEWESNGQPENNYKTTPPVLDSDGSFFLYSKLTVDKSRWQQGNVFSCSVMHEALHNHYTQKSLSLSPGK
light: B2 light

Experiments:
human CCR8 [1] = biological target: T1, human CCR8 (human, UniProt P51685 1-355); assay: FACS competition on HEK293-hCCR8 cells against a biotin-labelled anti-CCR8 antibody at its EC80; the labelled antibody of this panel is not named on the sheet
T1 construct: whole, on cells; construct used for the overexpressing cell lines is not described; also called hCCR8
T1 sequence (P51685 whole entry): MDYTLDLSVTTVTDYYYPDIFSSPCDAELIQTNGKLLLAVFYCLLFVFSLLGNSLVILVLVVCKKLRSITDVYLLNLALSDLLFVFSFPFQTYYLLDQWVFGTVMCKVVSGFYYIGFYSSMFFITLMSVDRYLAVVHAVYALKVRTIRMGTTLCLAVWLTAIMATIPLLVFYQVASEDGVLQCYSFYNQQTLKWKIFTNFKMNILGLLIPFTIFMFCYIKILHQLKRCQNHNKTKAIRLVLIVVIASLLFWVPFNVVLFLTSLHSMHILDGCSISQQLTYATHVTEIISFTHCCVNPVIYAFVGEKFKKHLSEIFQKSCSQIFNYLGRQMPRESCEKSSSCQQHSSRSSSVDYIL
Experimental: (§1) The antibody was conjugated with Sulfo-NHS-LC-Biotin at a molar ratio of 5:1 (1 mol antibody was added to 5 mol Sulfo-NHS-LC-Biotin) with reference to the product instructions (ThermoFisher, Cat No. A39257) and incubated on ice for 2 h. The coupled antibody was purified with a Zeba desalting column (ThermoFisher, Cat No. 89882). Cells overexpressing human CCR8, HEK293-hCCR8, were added to a V-bottom 96-well plate at a density of 1E5 cells/well and centrifuged at 300 g for 5 min, and the supernatant was discarded. The competitive antibody was serially diluted in a ratio of 1:10 from 200 nM to obtain 8 concentration points. The Biotin-antibody and the competition antibody were mixed in a 1:1 ratio on an HEK293 cell line overexpressing human CCR8 by the binding EC₈₀ concentration. The cells in the 96-well plate were resuspended and incubated at 4° C. for 1 h. The plate was washed twice with DPBS at 200 μL/well. The secondary antibody diluted in a 1:1000 ratio was added at 100 μL/well, and the mixture was incubated at 4° C. for 40 min. The plate was washed twice with DPBS at 200 μL/well. Finally, DPBS was […] at 200 μL/well to suspend the cells, and the mixture was loaded on an FACS machine for analysis.

human CCR8 [2] = biological target: T1, human CCR8; assay: as above; remark: listed apart in the source
Experimental: as §1

human CCR8 [3] = biological target: T1, human CCR8; assay: FACS, HEK293-hCCR8 cells
Experimental: (§2) Cells overexpressing human CCR8 were digested with pancreatin, counted and resuspended to a cell density of 1E6 cells/mL. The cell suspension was added to a 96-well V-bottom plate at 100 μL/well and centrifuged at 300 g for 5 min, and the supernatant was discarded. The anti-CCR8 antibodies provided herein was used as a primary antibody and diluted in a 5-fold gradient with an FACS buffer (DPBS containing 2% FBS) from 200 nM. The diluted primary antibody was added at 100 μL/well to resuspend the cells, and the mixture was incubated at 4° C. for 1 h. The plate was washed twice with DPBS and centrifuged at 300×g for 5 min, and the supernatant was discarded. The secondary antibody diluted in a 1:1000 ratio with an FACS buffer was added at 100 μL/well to suspend the cells, and the mixture was incubated at 4° C. for 40 min. The plate was washed twice with DPBS and centrifuged at 300×g for 5 min, and the supernatant was discarded. DPBS was added at 200 μL/well to suspend the cells, and the mixture was loaded on an FACS machine for analysis.

human CCR8 [4] = biological target: T1, human CCR8; assay: FACS competition on HEK293-hCCR8 cells against a biotin-labelled anti-CCR8 antibody at its EC80; the labelled antibody of this panel is not named on the sheet; remark: listed apart in the source
Experimental: as §1

human CCR8 [5] = biological target: T1, human CCR8; assay: cell-based or functional assay
human CCR8 [6] = biological target: T1, human CCR8; assay: FACS competition on HEK293-hCCR8 cells against a biotin-labelled anti-CCR8 antibody at its EC80; the labelled antibody of this panel is not named on the sheet; remark: listed apart in the source
Experimental: as §1

human CCR8 [7] = biological target: T1, human CCR8; assay: FACS, CHO-K1-hCCR8 cells
Method in brief: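 Binding was measured on intact cells by two-step staining at 4 °C. Test antibodies were applied from 200 nM in 5-fold steps for 1 h, and a secondary reagent at 1:1000 for 40 min, before analysis on a FACS instrument.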

human CCR8 [8] = biological target: T1, human CCR8; assay: FACS competition on HEK293-hCCR8 cells against a biotin-labelled anti-CCR8 antibody at its EC80; the labelled antibody of this panel is not named on the sheet; remark: listed apart in the source
Experimental: as §1

human CCR8 [9] = biological target: T1, human CCR8; assay: FACS on HEK293 cells overexpressing human CCR8
Experimental: as §2

cynomolgus monkey CCR8 [10] = biological target: T2, cynomolgus monkey CCR8 (cynomolgus monkey, UniProt G7NYJ2 1-355); assay: FACS, CHO-K1-CynoCCR8 cells
T2 construct: whole, on cells; also called CynoCCR8
T2 sequence (G7NYJ2 entry or part of it): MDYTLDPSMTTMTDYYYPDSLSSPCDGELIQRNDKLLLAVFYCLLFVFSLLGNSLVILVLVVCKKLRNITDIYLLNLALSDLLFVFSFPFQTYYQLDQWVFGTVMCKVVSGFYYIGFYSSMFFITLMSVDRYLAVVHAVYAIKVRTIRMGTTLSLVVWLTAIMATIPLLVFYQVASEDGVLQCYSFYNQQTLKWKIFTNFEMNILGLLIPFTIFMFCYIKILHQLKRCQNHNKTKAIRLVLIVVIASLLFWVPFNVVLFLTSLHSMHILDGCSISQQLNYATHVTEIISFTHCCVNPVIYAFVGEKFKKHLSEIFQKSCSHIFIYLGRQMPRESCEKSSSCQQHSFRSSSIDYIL
Method in brief: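 Anti-CCR8 antibodies titrated in 5-fold steps from 200 nM onto 1E6 cells/mL CHO-K1-CynoCCR8 in DPBS/2% FBS, 1 h at 4 °C. Bound antibody detected with 1:1000 secondary antibody, 40 min at 4 °C, then flow cytometry.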

cynomolgus monkey CCR8 [11] = biological target: T2, cynomolgus monkey CCR8; assay: FACS, CHO-K1-CynoCCR8 cells; remark: listed apart in the source
Experimental: as §2, with “cynomolgus monkey CCR8, CHO-K1-CynoCCR8,” for “human CCR8”

human CCR8 [12] = biological target: T1, human CCR8; assay: FACS, HEK293-hCCR8 cells; remark: listed apart in the source
Experimental: as §2

human CCR8 [13] = biological target: T1, human CCR8; assay: FACS, Baf3-hCCR8 cells
Experimental: as §2

human CCR8 [14] = biological target: T1, human CCR8; assay: KinExA, cell line overexpressing human CCR8; human CCR8 cell line
Experimental: (§3) To 200 mg of PMMA hard beads was added 30 μg of Goat Anti-Human IgG Fc antibody, and the mixture was supplemented with a coating solution to 1.0 mL, with a buffer composition of 1×PBS, pH7.4, to ensure that the beads were completely suspended in the solution. After being spun at room temperature for 2 h, the beads were either allowed to settle naturally or centrifuged briefly at low speed, and the supernatant was removed. 1 mL of blocking buffer (1×PBS, pH7.4, containing 10 mg/mL BSA) was added to ensure that the beads were resuspended in the blocking solution, and the beads were spun at room temperature for 1 h. An appropriate concentration of PR005565, PR006155 or PR006166 was used as the 100% signal value, and PBS blank was used as the background value. The net signal values were detected using 0.5 μg/mL Alexa Fluor® 647 Goat Anti-Human IgG. The cell line overexpressing human or monkey CCR8 was collected by centrifugation at 1500 g for 5 min, washed 2 times with 2 PBS and centrifuged at 350 g. The cells were collected in a 1.5 mL centrifuge tube. 10 mL of 0.2 nM PR005565, PR006155 or PR006166 solution was prepared. The total cells were supplemented with 0.2 nM PR005565, PR006155 or PR006166 solution to 0.82 mL, and diluted in a 2-fold gradient with 0.2 nM PR005565, PR006155 or PR006166 as a buffer. […]

cynomolgus monkey CCR8 [15] = biological target: T2, cynomolgus monkey CCR8; assay: KinExA, cell line overexpressing monkey CCR8; monkey CCR8 cell line
Experimental: as §3

| Binder | IC50 (read off the curve) (human CCR8 [1]) [nM] | IC50 (read off the curve) (human CCR8 [2]) [nM] | EC50 (human CCR8 [3]) [nM] | IC50 (read off the curve) (human CCR8 [4]) [nM] | Bottom %, blocking of CCL1-stimulated calcium flux (human CCR8 [5]) [%] | IC50(nM), blocking of CCL1-stimulated calcium flux (human CCR8 [5]) [nM] | IC50 (read off the curve) (human CCR8 [6]) [nM] | EC50 (human CCR8 [7]) [nM] | IC50 (read off the curve) (human CCR8 [8]) [nM] | EC50 (read off the curve) (human CCR8 [9]) [nM] | EC50 (cynomolgus monkey CCR8 [10]) [nM] | EC50 (cynomolgus monkey CCR8 [11]) [nM] | EC50 (human CCR8 [12]) [nM] | EC50 (human CCR8 [13]) [nM] | Kd (human CCR8 [14]) [nM] | Kd (cynomolgus monkey CCR8 [15]) [nM] |
| --- | --- | --- | --- | --- | --- | --- | --- | --- | --- | --- | --- | --- | --- | --- | --- | --- |
| B1 | 1 to 2 | ~2 | 0.66 | ~2 | 12 | 1.47 | ~3 | 0.5 | ~2 | ~1 | 1.06 | 2.83 | 0.99 | 0.17 |  |  |
| B2 |  |  |  |  |  |  |  | 0.38 |  |  | 0.39 |  |  |  | 0.0214 |  |
| B3 |  |  |  |  |  |  |  | 0.49 |  |  | 0.44 |  |  |  |  | 0.0493 |
